Test: soluble on expression in E. coli; label from the status in PepcDB or PDB records

Row | Sequence | soluble on expression in E. coli
1 | MLTVDLSGKKALVMGVTNQRSLGFAIAAKLKEAGAEVALSYQAERLRPEAEKLAEALGGALLFRADVTQDEELDALFAGVKEAFGGLDYLVHAIAFAPREAMEGRYIDTRRQDWLLALEVSAYSLVAVARRAEPLLREGGGIVTLTYYASEKVVPKYNVMAIAKAALEASVRYLAYELGPKGVRVNAISAGPVRTVAARSIPGFTKMYDRVAQTAPLRRNITQEEVGNLGLFLLSPLASGITGEVVYVDAGYHIMGMELEG | soluble
2 | VADATTLAVVGPGVMAKTITEACIAERPGITTIKIKGRSERGINAFATWALEKFPEIEVVAVGSEEDVVKDADIVIAATTTDAAGSSAFPYFKKEWLKPGALLLLPAAGRFDDAYLLDDARLVVDYMGLYEAWAEEYGPQAYQLLGIPGTHWYDLALQGKLDLAKISQIGDICSGKLPGRTNDEEIILYSVGG | not soluble
3 | MAHHHHHHMLLVGFKPCEIVFLVDTLLGSGVSRLPQLFSFFFGGGVHSCARQRKSRKGFAPPNWHPLPRPRRLTAFPYHSQVVAHKRVVRRLLTINNLVFNCCGNLFLPICTLHPKFPFTNDLSQYVVTCEFPPLQLHFSTQAPKNCFRKQLDLVLCSINVAVDVFHPALLRTFRWIC | soluble
4 | MSLSIRYIVKTDVSETFEIIKAGQVGSNIVFSEIRTFDFGELATLACEKFYFRSSNRAALFVNINNFHGETEVTIISTGSSNGFFTGIDWGAAFDYMHSVVADLKRVAIREVKMEKQEEGHHHHHH | soluble
5 | GSPASGTSLSAAIHRTQLWFHGRISREESQRLIGQQGLVDGLFLVRESQRNPQGFVLSLCHLQKVKHYLILPSEEEGRLYFSMDDGQTRFTDLLQLVEFHQLNRGILPCLLRHCCTRVAL | soluble
6 | MLPKAFLSRMAELLGEEFPAFLKALTEGKRTYGLRVNTLKLPPEAFQRISPWPLRPIPWCQEGFYYPEEARPGPHPFFYAGLYYIQEPSAQAVGVLLDPKPGERVLDLAAAPGGKTTHLAARMGGKGLLLANEVDGKRVRGLLENVERWGAPLAVTQAPPRALAEAFGTYFHRVLLDAPCSGEGMFRKDREAARHWGPSAPKRMAEVQKALLAQASRLLGPGGVLVYSTCTFAPEENEGVVAHFLKAHPEFRLEDARLHPLFAPGVPEWGEGNPELLKTARLWPHRLEGEGHFLARFRKEGGAWSTPRLERPSPLSQEALRAFRGFLEEAGLTLEGPVLDRAGHLYLLPEGLPTLLGLKAPAPGLYLGKVQKGRFLPARALALAFGATLPWPEGLPRLALTPEDPRALAFATGEGVAWEGEDHPLALVVLKTAAGEFPLDFGKAKRGVLRPVGVGLRSHHHHHH | soluble
7 | MFRPILILTILSCVLAYHQYRELKCSTPTNSIRGGPDRAECHLVLKAEELETGRPVPTGLGCWQEDHDGEEREYCDIVCPKSHTVFISYIDQGHRACFNFITYQVEKRNDEHVLWRSGKCLNSTVNYRIGCKFDDPFETQFKSDNEIFAHLRARARRV | not soluble
8 | MGSDKIHHHHHHMVKIMQYINKSKEEFLSEIYRIVAKIRLELELTTSEITISDFEFKMDSENSKNLILMIYTPTRTDKSLLIGPGGWVVGKLREKLNGSFKENLIIRVESYIDRKKELDAIENSISHLREKGLDISSKKDALVIIQCEYDLSSIDFINEYFNPIFITFDLGTALLPHKNRNRIEQVFKDKNLKYEFLSPYSLNGEQITDAISKNPCETICNNLISEMVNYAKNKNIEIVLFNHLNKDYEFRNGIHILNFLKMFPIKLNSLIHKGRSLDCPLLIQSCKRNKITKTFKIKQIVSGVYSGLVEPTEGAEEIIKYLK | not soluble
9 | GPHMADLLLNSTQFVQAFTYLIQNDKEFANKLHKAYLNGCSNLLLD | soluble
10 | MGSDKIHHHHHHMSQHRDAAFLTAKSWQDLPASVPFRLCCIERIDETHDVVTFRFEAAGEPVRFSYKPGQFITLLLEIGGEPHSRAYTLSSSPSRPYSISITVKRVEGGKVSNYLIDNLRPGHALDAMGPSGSFNLVDIPADRYLFLSAGCGITPMFSMSRWLTDTRVGADITFVHSARSVDDLIFAPKLESMANNHSGFRLGYVIEQGNCPDWPYAPVLPGRLTLSGLDSLVSDWRERTLYVCGPEAYMAAVEAMVRDAGFAMSRFHKESFGKPGAPVKSSGQGFMLKVGDKLHPLGESGLLLEGIEALKLPIIAACRSGVCGACKCQVLEGDVERLSEMTLTEEDKANGMVLACSARALSNISLKL | not soluble
11 | MGSDKIHHHHHHMLTGVEVRHFKSWRASEWIACAPITMFFGSNSSGKTSLLQLLLLLKQTTESSDRQQVLNLGDTHSPVDAGTFPDLLHRHEQTQSLFWRIAWQLPPDLTIALPGRKNGDHLPARELAFQARIGWHQHSDSTPNLQAQASHGRAVVEEMAYQLAGYTLGMRLRDRVKQEYELYSDPAGLFSRPSRKSPRLPSPVKCYGFPDEVQKYYKHVSFLTDLEFALEQLCRRMTYLGPLREYPRRQYTWSGTPPTGVGYRGERVIEALLASRLSSDVASGTDSDQPSALETRVAEWLKTMELIADFAVRAVAPGASLFQVWVRRAQQAPEVLMTDVGFGISQMLPVITLCYYVPKGSIVILEHPEIHLHPRAQADLADVLIDAVKTRGVQIIVESHSEHLLRRLQRRIAEDVLPSDQAALYVCTTDAEGVSHIQRLHLDPYGNITNWPKDFFGDEMGDLLAMSEAAMKRQLGQV | not soluble
12 | MFLVDSHCHLDGLDYESLHKDVDDVLAKAAARDVKFCLAVATTLPGYLHMRDLVGERDNVVFSCGVHPLNQNDPYDVEDLRRLAAEEGVVALGETGLDYYYTPETKVRQQESFIHHIQIGRELNKPVIVHTRDARADTLAILREEKVTDCGGVLHCFTEDRETAGKLLDLGFYISFSGIVTFRNAEQLRDAARYVPLDRLLVETDSPYLAPVPHRGKENQPAMVRDVAEYMAVLKGVAVEELAQVTTDNFARLFHIDASRLQSIR | soluble
13 | IVGGYTCEENSLPYQVSLNSGSHFCGGSLISEQWVVSAAHCYKTRIQVRLGEHNIKVLEGNEQFINAAKIIRHPKYNRDTLDNDIMLIKLSSPAVINARVSTISLPTAPPAAGTECLISGWGNTLSFGADYPDELKCLDAPVLTQAECKASYPGKITNSMFCVGFLEGGKDSCQRDAGGPVVCNGQLQGVVSWGHGCAWKNRPGVYTKVYNYVDWIKDTIAANS | soluble
14 | MSLIRAMQKSDYEAVYKLWCEIKGFGIRSIDDSKENIENFLDRNPNLSVVAVIDEEIVGSILCGHDGRTGGFYHVCVHKDHRKKGIAHEMAKFCLEALKAQKINKIALIAFKNNDLGNEFWKHYGFTLREDANYYDLSLNEYNQTSFNAEGHHHHHH | soluble
15 | MGSDKIHHHHHHMSVVDPSLIERIIRDDVRAMGAYHVPDSHGLVKLDAMENPYRLPPALRSELAARLGEVALNRYPVPSSEALRAKLKEVMQVPAGMEVLLGNGSDEIISMLALAAARPGAKVMAPVPGFVMYAMSAQFAGLEFVGVPLRADFTLDRGAMLAAMAEHQPAIVYLAYPNNPTGNLFDAADMEAIVRAAQGSVCRSLVVVDEAYQPFAQESWMSRLTDFGNLLVMRTVSKLGLAGIRLGYVAGDPQWLEQLDKVRPPYNVNVLTEATALFALEHVAVLDEQAAQLRAERSRVAEGMAAHGGVTVFPSAANFLLARVPDAAQTFDRLLARKVLIKNVSKMHPLLANCLRVTVSTPEENAQFLEAFAASLQD | not soluble
16 | MGALVIRGIRNFNLENRAEREISKMKPSVAPRHPSTNSLLREQISLYPEVKGEIARKDEKLLSFLKDVYVDSKDPVSSLQVKAAETCQEPKEFRLPKDHHFDMINIKSIPKGKISIVEALTLLNNHKLFPETWTAEKIMQEYQLEQKDVNSLLKYFVTFEVEIFPPEDKKAIRSK | soluble
17 | GLEVDNNSLLRNIYSTIVYEYSDIVIDFKTSHNLVTKKLDVRDARDFFINSEMDEYAANDFKTGDKIAVFSVPFDWNYLSKGKVTAYTYGGITPYQKTSIPKNIPVNLWINGKQISVPYNEISTNKTTVTAQEIDLKVRKFLIAQHQLYSSGSSYKSGRLVFHTNDNSDKYSFDLFYVGYRDKESIFKVYKDNKSFNIDKIGHLDIEIDS | soluble
18 | GSETCIYSNWSPWSACSSSTCEKGKRMRQRMLKAQLDLSVPCPDTQDFQPCMGPGCSDEDG | soluble
19 | MNYHTFCPISCVSWLYQKIEDSFFLVIGTKTCGYFLQNAMGVMIFAEPRYAMAELEEGDISAQLKDYEELKRLCLQIKRDRNPSVIVWIGTCTTEIIKMDLEGLAPQLEAEIGIPIVTARANGLDYAFTQGEDTVLASMAHKCPTSAQVQGEDKELEHHHHHH | soluble
20 | MSQDVNELSKQPTPDKAEDNAFFPSPYSLSQYTAPKTDFDGVEHKGAYKDGKWKVLMIAAEERYVLLENGKMFSTGNHPVEMLLPLHHLMEAGFDVDVATLSGYPVKLELWAMPTEDEAVISTYNKLKEKLKQPKKLADVIKNELGPDSDYLSVFIPGGHAAVVGISESEDVQQTLDWALDNDRFIVTLCHGPAALLSAGLNREKSPLEGYSVCVFPDSLDEGANIEIGYLPGRLKWLVADLLTKQGLKVVNDDMTGRTLKDRKLLTGDSPLASNELGKLAVNEMLNAIQNK | not soluble
21 | MNLKEFIIPAIDLMEGKAVRLYKGDFNKVKVYSERPWELAKNFSDLGFKRLHVVDLEGAEGGKPKNLEVIRKIRENFEGEVEVGGGIRSYEVAKALFDEGIDFVVIGTLAYKNKEEFLKILENFPNRVILAIDSKQGKVAIGGWKEETAVSPEEFAKEYENYPIWGYLYTVIERDGSLEGVDVEPYKEIKKHVKKPVIASGGVSSLEDIKKLYGIVEGVVVGKAIYEGRITLEDLQNF | soluble
22 | MKFQCSSCGLRMDSLHFKQEGLMNPKLTSICDICRTRNLNPEEYSNNAVSTFAQSLLYTFVGADKKQDQLNFIVKNKKARKKYEAFLQDYDGNEIARQQIKRSDFNLAVIKSEDGQNDYVPNQDITFEQNLKKMGLEINFQLNEVDFIDRERIRAKYKYRCQYCGRRGHSVDHKDPVSLSHNNSLDNLTLACAECNRIKSDMPYKLFIQLNDQISDINKKLVKYENALGTLREEFEHRRRYLAAQVHLKGIINDPELNEIRKQNKSLQDAIDSLQSDYDDLRQIRKTYFDTGWKLARIKENNDIILEHHHHHH | not soluble
23 | MGSDKIHHHHHHMRPVYIATAYLGPIQQYCKMLQYPEVRIETAENYVKQTYRNRCVIAAANGPLSLSIPIVKPDTLKCQTKDIRISDHGNWRHLHWNALVSAYNMSPFFEYYADDLAPFYEKKYEFLLDFNEELRRLVCDLLDMQPAVVYTEHYEPEVANDFRETIRPKHEGEDPAFRPEPYYQVFREKFGFLPNLSIADLLFNMGPEGLVTLRASITGSL | not soluble
24 | MGFMIEHWDFSTPMATQETTTAEHIQPNHWYHCERLHPDIRSWLEDNHVPRATVDHLLADESRPSFHPLDDDNFMLILRGINMNENASPEDMLSIRILYFQGALISTRKIPSRAIMEIRQALAEHKGPKSLASLLNQIIEGLNGKIDLYLDTIEETLNEFDVNDESTYNHIAAQKALISIKRFIRPQQYAIRDLIESESELVTSRPHQYRFAHNNITRINETIEFYLGEVALFQDEIKHNRDEKTNKNSYLFTLVATIFLPTSFLTGLL | not soluble
25 | MNVTFETTICAWDEKIPALLIRLVNTLLFCRTEEELRQSINKLRETAELDEFFTYGYGSHHFWCNQRISKGSMQFIQSRLFIATF | not soluble
26 | HHHHHHDEKRRPKRREIPLKVLVKAVLFACMLMRKTMASRVRVTILFATETGKSEALAWDLGALFSCAFNPKVVCMDKYRLSCLEEERLLLVVTSTFGNGDCPGNGEKLKKSLFMLKELNNKFRYAVFGLGSSMYPRFCAFAHDIDQKLSHLGASQLTPMGEGDELSGQEDAFRSWAVQTFKAACETFDVRGKQHIQIPKLYTSNVTWDPHHYRLVQDS | soluble
